Reference: PMC10397247

Columns and labels:
Experiment in all cases: two-hybrid library CCmax;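 further: natural log of median RNA to DNA barcode read ratio; higher means stronger binding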
4H3606-AA = molecular target: T1, 4H3606-AA; conditions: mean of both orientations
T1 chain: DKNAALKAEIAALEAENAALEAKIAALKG

4H3413-AA = molecular target: T2, 4H3413-AA; conditions: mean of both orientations
T2 chain: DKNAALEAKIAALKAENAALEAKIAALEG

4H982-AA = molecular target: T3, 4H982-AA; conditions: mean of both orientations
T3 chain: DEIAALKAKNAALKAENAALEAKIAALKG

4H3697-AA = molecular target: T4, 4H3697-AA; conditions: mean of both orientations
T4 chain: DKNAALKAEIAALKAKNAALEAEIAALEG

4H32-AA = molecular target: T5, 4H32-AA; conditions: mean of both orientations
T5 chain: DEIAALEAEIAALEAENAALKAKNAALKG

4H3133-AA = molecular target: T6, 4H3133-AA; conditions: mean of both orientations
T6 chain: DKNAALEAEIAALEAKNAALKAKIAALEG

4H2611-AA = molecular target: T7, 4H2611-AA; conditions: mean of both orientations
T7 chain: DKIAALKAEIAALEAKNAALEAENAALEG

4H1874-AA = molecular target: T8, 4H1874-AA; conditions: mean of both orientations
T8 chain: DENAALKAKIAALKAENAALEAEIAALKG

4H2648-AA = molecular target: T9, 4H2648-AA; conditions: mean of both orientations
T9 chain: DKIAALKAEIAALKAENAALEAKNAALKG

4H2553-AA = molecular target: T10, 4H2553-AA; conditions: mean of both orientations
T10 chain: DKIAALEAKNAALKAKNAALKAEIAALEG

4H3718-AA = molecular target: T11, 4H3718-AA
T11 chain: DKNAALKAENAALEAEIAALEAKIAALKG

4H1845-AA = molecular target: T12, 4H1845-AA; conditions: mean of both orientations
T12 chain: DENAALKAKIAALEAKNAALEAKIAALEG

4H2620-AA = molecular target: T13, 4H2620-AA; conditions: mean of both orientations
T13 chain: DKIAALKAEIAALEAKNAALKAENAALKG

4H3588-AA = molecular target: T14, 4H3588-AA; conditions: mean of both orientations
T14 chain: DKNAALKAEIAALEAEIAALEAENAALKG

4H1594-AA = molecular target: T15, 4H1594-AA
T15 chain: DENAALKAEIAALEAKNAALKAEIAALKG

4H697-AA = molecular target: T16, 4H697-AA; conditions: mean of both orientations
T16 chain: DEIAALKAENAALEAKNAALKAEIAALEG

4H2198-AA = molecular target: T17, 4H2198-AA; conditions: mean of both orientations
T17 chain: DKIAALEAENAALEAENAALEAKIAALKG

4H3378-AA = molecular target: T18, 4H3378-AA; conditions: mean of both orientations
T18 chain: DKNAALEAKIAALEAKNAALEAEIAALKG

4H3162-AA = molecular target: T19, 4H3162-AA; conditions: mean of both orientations
T19 chain: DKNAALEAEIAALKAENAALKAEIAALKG

4H3631-AA = molecular target: T20, 4H3631-AA; conditions: mean of both orientations
T20 chain: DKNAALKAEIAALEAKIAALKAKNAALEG

4H1629-AA = molecular target: T21, 4H1629-AA; conditions: mean of both orientations
T21 chain: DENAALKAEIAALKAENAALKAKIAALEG

4H2907-AA = molecular target: T22, 4H2907-AA; conditions: mean of both orientations
T22 chain: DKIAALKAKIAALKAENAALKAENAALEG

4H3865-AA = molecular target: T23, 4H3865-AA; conditions: mean of both orientations
T23 chain: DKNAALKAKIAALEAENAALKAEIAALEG

4H340-AA = molecular target: T24, 4H340-AA; conditions: mean of both orientations
T24 chain: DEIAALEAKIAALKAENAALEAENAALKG

4H384-AA = molecular target: T25, 4H384-AA; conditions: mean of both orientations
T25 chain: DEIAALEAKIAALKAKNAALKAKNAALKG

4H3056-AA = molecular target: T26, 4H3056-AA; conditions: mean of both orientations
T26 chain: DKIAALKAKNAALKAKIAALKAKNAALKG

## DENAALKAEIAALEAKNAALKAEIAALKG [4H1594-AA]
4H3606-AA
  interaction score: 1.96
4H3413-AA
  interaction score: 1.73
4H982-AA
  interaction score: 1.3
4H3697-AA
  interaction score: 0.415
4H32-AA
  interaction score: -1.19
4H3133-AA
  interaction score: -2.2
4H2611-AA
  interaction score: -1.7
4H1874-AA
  interaction score: 2.24
4H2648-AA
  interaction score: -0.627
4H2553-AA
  interaction score: -1.6
4H3718-AA
  interaction score: -1.13
4H1845-AA
  interaction score: -0.968
4H2620-AA
  interaction score: -1.5
4H3588-AA
  interaction score: -1.26
4H1594-AA
  interaction score: 1.19
4H697-AA
  interaction score: -2.03
4H2198-AA
  interaction score: -1.61
4H3378-AA
  interaction score: -0.189
4H3162-AA
  interaction score: 0.0257
4H3631-AA
  interaction score: -1.31
4H1629-AA
  interaction score: -0.822
4H2907-AA
  interaction score: -1.36
4H3865-AA
  interaction score: 1.15
4H340-AA
  interaction score: 0.908
4H384-AA
  interaction score: -1.64
4H3056-AA
  interaction score: -2.01
